This series deals with Escherichia coli TOP10. Briefly: shrunken log2 fold change of peptide-encoding DNA abundance (4.5 h post-induction vs induction); higher = less antimicrobial activity (less host growth inhibition). Particulars: time post-induction: 4.5 h; library: site-saturation at positions 5, 18, 19, 20.
RRIRPRPPRLPRPRPRPCHEPRP: the “shrunken log2 fold change” value was -0.316.
Consider RRIRERPPRLPRPRPRPCVGPRP, for which the “shrunken log2 fold change” value is -0.278.
Take RRIRWRPPRLPRPRPRPMVNPRP: the “shrunken log2 fold change” value was -0.0548.
Regarding RRIRLRPPRLPRPRPRPMANPRP, the “shrunken log2 fold change” value is -0.0744.
RRIRIRPPRLPRPRPRPEYPPRP: the “shrunken log2 fold change” value was -1.05.
With RRIRPRPPRLPRPRPRPLWHPRP, the “shrunken log2 fold change” value is -0.0751.
RRIRARPPRLPRPRPRPIIEPRP: the “shrunken log2 fold change” value was found to be 0.00879.
As to RRIRERPPRLPRPRPRPPNCPRP, the “shrunken log2 fold change” value is -0.019.
As to RRIRHRPPRLPRPRPRPLIMPRP, the “shrunken log2 fold change” value is -0.561.
Turning to RRIRTRPPRLPRPRPRPGPNPRP, the “shrunken log2 fold change” value is -0.0314.
In the case of RRIRQRPPRLPRPRPRPCHFPRP, the “shrunken log2 fold change” value was 0.173.
For RRIRSRPPRLPRPRPRPPYPPRP, the “shrunken log2 fold change” value is 0.0516.
On to RRIRCRPPRLPRPRPRPVSWPRP, for which the “shrunken log2 fold change” value is 0.49.
Regarding RRIRSRPPRLPRPRPRPSSRPRP, the “shrunken log2 fold change” value is -0.288.
Turning to RRIRRRPPRLPRPRPRPFLDPRP, the “shrunken log2 fold change” value was determined as 0.0172.
Take RRIRYRPPRLPRPRPRPDQDPRP: the “shrunken log2 fold change” value was -0.0701.
With RRIRHRPPRLPRPRPRPNKLPRP, the “shrunken log2 fold change” value is -1.05.
In the case of RRIRRRPPRLPRPRPRPKWNPRP, the “shrunken log2 fold change” value was determined as 0.0781.
As for RRIRDRPPRLPRPRPRPMHFPRP, the “shrunken log2 fold change” value is -0.142.
Turning to RRIRSRPPRLPRPRPRPQMWPRP, the “shrunken log2 fold change” value came to 0.0996.
With RRIRDRPPRLPRPRPRPLPCPRP, the “shrunken log2 fold change” value stood at 0.0544.
The value for RRIRWRPPRLPRPRPRPILHPRP was 0.0591; that for RRIRHRPPRLPRPRPRPVDAPRP was 0.131; that for RRIRRRPPRLPRPRPRPNKCPRP was -0.634.
Take RRIRTRPPRLPRPRPRPGAPPRP: the “shrunken log2 fold change” value was 0.479.
As for RRIRKRPPRLPRPRPRPWHEPRP, the “shrunken log2 fold change” value is -0.0363.
On to RRIRHRPPRLPRPRPRPLTMPRP, for which the “shrunken log2 fold change” value was -0.3.
In the case of RRIRHRPPRLPRPRPRPFEVPRP it was -0.172; in that of RRIRKRPPRLPRPRPRPSIKPRP, -0.004.
In the case of RRIRPRPPRLPRPRPRPNQCPRP, the “shrunken log2 fold change” value is -0.0767.
On to RRIRIRPPRLPRPRPRPCQQPRP, for which the “shrunken log2 fold change” value was -0.0169.
Consider RRIRRRPPRLPRPRPRPIDIPRP, for which the “shrunken log2 fold change” value is -0.118.
On to RRIRGRPPRLPRPRPRPRTPPRP, for which the “shrunken log2 fold change” value came out at 1.18.
Turning to RRIRWRPPRLPRPRPRPKTIPRP, the “shrunken log2 fold change” value is 0.118.
RRIRCRPPRLPRPRPRPKELPRP: the “shrunken log2 fold change” value was -0.000896.
As for RRIRARPPRLPRPRPRPTRRPRP, the “shrunken log2 fold change” value came out at 1.1.
Consider RRIRHRPPRLPRPRPRPRLAPRP, for which the “shrunken log2 fold change” value is 0.206.
RRIRGRPPRLPRPRPRPQSAPRP: the “shrunken log2 fold change” value turned out to be 0.629.
For the sequence RRIRMRPPRLPRPRPRPACEPRP, the “shrunken log2 fold change” value turned out to be 0.903.
The value for RRIRRRPPRLPRPRPRPGSKPRP was -0.0919; that for RRIRKRPPRLPRPRPRPHCNPRP was -0.275; that for RRIRRRPPRLPRPRPRPKYMPRP was -0.444.
For RRIRWRPPRLPRPRPRPVAWPRP, the “shrunken log2 fold change” value stood at 0.489.
Take RRIRDRPPRLPRPRPRPSILPRP: the “shrunken log2 fold change” value is 0.202.
Regarding RRIRGRPPRLPRPRPRPFRRPRP, the “shrunken log2 fold change” value was 0.234.
As to RRIRPRPPRLPRPRPRPEKQPRP, the “shrunken log2 fold change” value was -0.0353.
For the sequence RRIRGRPPRLPRPRPRPFHHPRP, the “shrunken log2 fold change” value was -0.126.
As for RRIRSRPPRLPRPRPRPNVSPRP, the “shrunken log2 fold change” value was -0.0656.
For the sequence RRIRWRPPRLPRPRPRPTAAPRP, the “shrunken log2 fold change” value was determined as 1.65.
As for RRIRLRPPRLPRPRPRPYKSPRP, the “shrunken log2 fold change” value was determined as 0.0344.
For RRIRIRPPRLPRPRPRPCHKPRP, the “shrunken log2 fold change” value is -0.16.
In the case of RRIRYRPPRLPRPRPRPTCWPRP it was 0.0987.
As to RRIRVRPPRLPRPRPRPLSLPRP, the “shrunken log2 fold change” value is -0.0403.
With RRIRSRPPRLPRPRPRPGEQPRP, the “shrunken log2 fold change” value came to 0.00836.
Regarding RRIRNRPPRLPRPRPRPENTPRP, the “shrunken log2 fold change” value was -0.803.
As to RRIRGRPPRLPRPRPRPTEEPRP, the “shrunken log2 fold change” value stood at 0.525.
For RRIRGRPPRLPRPRPRPLCAPRP, the “shrunken log2 fold change” value was 1.55.
With RRIRNRPPRLPRPRPRPHWGPRP, the “shrunken log2 fold change” value is -0.0266.
In the case of RRIRTRPPRLPRPRPRPCSKPRP it was -0.074.
Take RRIRSRPPRLPRPRPRPAAKPRP: the “shrunken log2 fold change” value came to 0.155.
Regarding RRIRTRPPRLPRPRPRPDMVPRP, the “shrunken log2 fold change” value is -0.00822.
Turning to RRIRPRPPRLPRPRPRPYIEPRP, the “shrunken log2 fold change” value was -0.322.
With RRIRLRPPRLPRPRPRPVGPPRP, the “shrunken log2 fold change” value was determined as 0.163.
On to RRIRKRPPRLPRPRPRPSCWPRP, for which the “shrunken log2 fold change” value stood at 0.244.
In the case of RRIRGRPPRLPRPRPRPYEAPRP, the “shrunken log2 fold change” value worked out at 0.045.
For the sequence RRIRERPPRLPRPRPRPSHFPRP, the “shrunken log2 fold change” value came out at 0.000406.
As to RRIRYRPPRLPRPRPRPMENPRP, the “shrunken log2 fold change” value is -0.207.
Turning to RRIRFRPPRLPRPRPRPCGGPRP, the “shrunken log2 fold change” value came to 0.12.
As to RRIRYRPPRLPRPRPRPPCRPRP, the “shrunken log2 fold change” value was -0.211.
Regarding RRIRDRPPRLPRPRPRPRWVPRP, the “shrunken log2 fold change” value is 0.263.
With RRIRWRPPRLPRPRPRPWVVPRP, the “shrunken log2 fold change” value stood at 1.61.
Take RRIRRRPPRLPRPRPRPVNCPRP: the “shrunken log2 fold change” value is 0.148.
As to RRIRKRPPRLPRPRPRPEDVPRP, the “shrunken log2 fold change” value was -0.04.
With RRIRDRPPRLPRPRPRPYNTPRP, the “shrunken log2 fold change” value is -0.476.
Consider RRIRCRPPRLPRPRPRPKAKPRP, for which the “shrunken log2 fold change” value came out at 0.0298.
As to RRIRQRPPRLPRPRPRPEGYPRP, the “shrunken log2 fold change” value is -0.0294.
The value for RRIRMRPPRLPRPRPRPMSGPRP was 0.858; that for RRIRPRPPRLPRPRPRPSEKPRP was -0.0945; that for RRIRFRPPRLPRPRPRPFGTPRP was -0.587.
Consider RRIRIRPPRLPRPRPRPFMTPRP, for which the “shrunken log2 fold change” value was -1.01.
As to RRIRPRPPRLPRPRPRPMKNPRP, the “shrunken log2 fold change” value was 0.212.
As to RRIRMRPPRLPRPRPRPESPPRP, the “shrunken log2 fold change” value stood at 2.01.
The value for RRIRMRPPRLPRPRPRPFYEPRP was 0.027; that for RRIRLRPPRLPRPRPRPSQKPRP was 0.00285.
For RRIRPRPPRLPRPRPRPGENPRP, the “shrunken log2 fold change” value stood at 0.184.
With RRIRVRPPRLPRPRPRPVICPRP, the “shrunken log2 fold change” value is -0.0928.
In the case of RRIRTRPPRLPRPRPRPRMKPRP it was 0.0156; in that of RRIRRRPPRLPRPRPRPLKVPRP, 0.0966; in that of RRIRFRPPRLPRPRPRPGWEPRP, 0.0875.
For RRIRCRPPRLPRPRPRPWKMPRP, the “shrunken log2 fold change” value was -0.0124.
For RRIRHRPPRLPRPRPRPSTVPRP, the “shrunken log2 fold change” value was determined as 0.00256.
On to RRIRQRPPRLPRPRPRPRPIPRP, for which the “shrunken log2 fold change” value stood at 0.385.
As for RRIRQRPPRLPRPRPRPYLEPRP, the “shrunken log2 fold change” value was -0.332.
On to RRIRLRPPRLPRPRPRPVMQPRP, for which the “shrunken log2 fold change” value stood at 0.00383.
The value for RRIRQRPPRLPRPRPRPDTGPRP was -0.0117; that for RRIRNRPPRLPRPRPRPLVMPRP was -0.126; that for RRIRNRPPRLPRPRPRPYFPPRP was -0.143.
On to RRIRYRPPRLPRPRPRPSWFPRP, for which the “shrunken log2 fold change” value was -0.942.
As for RRIRRRPPRLPRPRPRPDQKPRP, the “shrunken log2 fold change” value is -0.0181.
For the sequence RRIRWRPPRLPRPRPRPSVHPRP, the “shrunken log2 fold change” value was -0.136.
RRIRERPPRLPRPRPRPGKLPRP: the “shrunken log2 fold change” value came out at 0.162.
In the case of RRIRSRPPRLPRPRPRPKIDPRP, the “shrunken log2 fold change” value was -0.000854.
In the case of RRIRERPPRLPRPRPRPQFHPRP, the “shrunken log2 fold change” value was -0.629.
In the case of RRIRWRPPRLPRPRPRPMSVPRP, the “shrunken log2 fold change” value is 0.0691.
On to RRIRARPPRLPRPRPRPWCDPRP, for which the “shrunken log2 fold change” value amounted to 0.00114.
Consider RRIRYRPPRLPRPRPRPYFRPRP, for which the “shrunken log2 fold change” value was -0.836.
RRIRYRPPRLPRPRPRPISIPRP: the “shrunken log2 fold change” value is -0.134.
For the sequence RRIRERPPRLPRPRPRPANMPRP, the “shrunken log2 fold change” value was -0.19.
The value for RRIRWRPPRLPRPRPRPPRAPRP was 0.782; that for RRIRSRPPRLPRPRPRPATKPRP was 0.161; that for RRIRQRPPRLPRPRPRPYFDPRP was -0.202.
RRIRQRPPRLPRPRPRPFKNPRP: the “shrunken log2 fold change” value was 0.0784.
In the case of RRIRVRPPRLPRPRPRPACHPRP it was 0.0396; in that of RRIRPRPPRLPRPRPRPNCLPRP, -0.0395; in that of RRIRSRPPRLPRPRPRPRYTPRP, -0.145.
As to RRIRYRPPRLPRPRPRPHPWPRP, the “shrunken log2 fold change” value was -0.542.
In the case of RRIRERPPRLPRPRPRPGDLPRP it was -0.0898.
Consider RRIRTRPPRLPRPRPRPFTGPRP, for which the “shrunken log2 fold change” value is -0.12.
The value for RRIRGRPPRLPRPRPRPVDMPRP was 0.255.
As for RRIRFRPPRLPRPRPRPDRCPRP, the “shrunken log2 fold change” value was -0.208.
Turning to RRIRVRPPRLPRPRPRPYRWPRP, the “shrunken log2 fold change” value was -0.355.
In the case of RRIRTRPPRLPRPRPRPYIDPRP it was -0.132.
In the case of RRIRYRPPRLPRPRPRPIHSPRP it was -0.0447; in that of RRIRRRPPRLPRPRPRPVNEPRP, 0.196.
Turning to RRIRPRPPRLPRPRPRPDGYPRP, the “shrunken log2 fold change” value was -0.246.

The values are drawn from the supplement of paper PMC9112550, “Optimization of the antimicrobial peptide Bac7 by deep mutational scanning” (BMC Biology, 2022).
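Also: peptides expressed intracellularly from a pBAD plasmid library in pooled LB shake-flask culture, induced with 0.3% L-arabinose, DNA abundance read by NGS, three biological replicates, DESeq2 with apeglm shrinkage.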
